In PMC5146914:

Experiment: circular dichroism
Settings: 10 mM PBS; pH 7.4; 25 °C; 50-800 uM

| Compound | helicity [rel %] |
| --- | --- |
| CC(=O)N[C@H]1CCCCC[S@@](=O)C[C@@H](C(N)=O)NC(=O)[C@H](C)NC(=O)[C@H](C)NC(=O)[C@H](C)NC1=O | 100 |
| CC(=O)N[C@H]1CCCCC[S@@](=O)C[C@@H](C(N)=O)NC(=O)[C@H](C)NC(=O)[C@H](CCC(N)=O)NC(=O)[C@H](C)NC1=O | 93 |
| CC(=O)N[C@H]1CCCCC[S@@](=O)C[C@@H](C(N)=O)NC(=O)[C@H](C)NC(=O)[C@H](Cc2ccccc2)NC(=O)[C@H](C)NC1=O | 92 |
| CC(=O)N[C@H]1CCCCC[S@@](=O)C[C@@H](C(N)=O)NC(=O)[C@H](CCC(=O)O)NC(=O)[C@H](C)NC(=O)[C@H](CCCCN)NC1=O | 31 |
| CC(=O)N[C@H]1CCCCC[S@@](=O)C[C@@H](C(N)=O)NC(=O)[C@H](C)NC(=O)CNC(=O)[C@H](C)NC1=O | 54 |
| CC[C@H](C)[C@@H]1NC(=O)[C@H](C)NC(=O)[C@@H](NC(C)=O)CCCCC[S@@](=O)C[C@@H](C(N)=O)NC(=O)[C@H](C)NC1=O | 86 |
| CC(=O)N[C@H]1CCCCC[S@@](=O)C[C@@H](C(N)=O)NC(=O)[C@H](C)NC(=O)[C@H](CO)NC(=O)[C@H](C)NC1=O | 65 |
